Assay [1] has as its target HIV-1 Yu2 gp160 (Env) expressed on the 293T cell surface (HIV-1 Yu2) (UniProt P35961). Kind of assay: flow cytometry, 293T cells transfected with Yu2 gp160, primary antibody 10 µg/ml. A general note: A flow cytometer gives signals particle by particle.
Assay [2] deals with HIV-1 gp41 (strain not stated) (HIV-1). Kind of assay: SPR (BIAcore), Env protein immobilized on CM5 chip, antibody as analyte. (In general: SPR reads the build-up and loss of mass on a sensor chip optically.)
For assay [3], the target named is Recombinant HIV-1 gp41MN (HIV-1 MN) (UniProt P05877). Kind of assay: ELISA on coated gp41 (HIV-1 MN per the example), OD at 405 nm. (ELISA stands for enzyme-linked immunosorbent assay.)
Assay [4] concerns the target full-length gp120 monomer (HIV-1 (Yu2 by the materials, not named in the results)) (UniProt P35961). Kind of assay: ELISA on coated full-length gp120 monomer, OD at 405 nm, 1x PBS as blank.
In assay [5] the target is SF162 gp140 trimer (HIV-1 SF162) (UniProt P19550). Nature of the assay: ELISA on coated SF162 gp140 trimer, OD at 405 nm, 1x PBS as blank.
Sequence of SF162 gp140 trimer (HIV-1 SF162) (P19550 32-675 limits assumed): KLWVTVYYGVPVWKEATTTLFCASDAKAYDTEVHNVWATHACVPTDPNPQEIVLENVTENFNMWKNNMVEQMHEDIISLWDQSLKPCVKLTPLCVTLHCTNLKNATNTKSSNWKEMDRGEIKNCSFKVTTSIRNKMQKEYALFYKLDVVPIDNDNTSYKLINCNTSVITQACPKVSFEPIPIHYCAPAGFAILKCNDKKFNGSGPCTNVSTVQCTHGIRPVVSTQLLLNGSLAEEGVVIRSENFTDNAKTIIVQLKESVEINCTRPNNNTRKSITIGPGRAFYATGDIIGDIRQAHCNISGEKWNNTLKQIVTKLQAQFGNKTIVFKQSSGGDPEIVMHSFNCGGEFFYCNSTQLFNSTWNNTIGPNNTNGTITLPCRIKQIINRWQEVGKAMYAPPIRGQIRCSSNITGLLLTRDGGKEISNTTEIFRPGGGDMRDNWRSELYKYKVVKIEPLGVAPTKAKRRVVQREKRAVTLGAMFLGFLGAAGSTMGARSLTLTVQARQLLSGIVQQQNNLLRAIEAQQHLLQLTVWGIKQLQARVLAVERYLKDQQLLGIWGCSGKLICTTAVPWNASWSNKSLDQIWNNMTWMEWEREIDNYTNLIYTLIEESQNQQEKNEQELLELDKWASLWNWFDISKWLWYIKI
For assay [6], the target named is BG505 SOSIP.664 gp140 trimer (HIV-1 BG505). Nature of the assay: ELISA on coated BG505 SOSIP.664 gp140 trimer, OD at 405 nm, 1x PBS as blank.
Assay [7] deals with full-length gp120 monomer (HIV-1 (Yu2 by the materials, not named in the results)) (UniProt P35961). Kind of assay: SPR (BIAcore), Env protein immobilized on CM5 chip, antibody as analyte.
Assay [8] shares this target. Nature of the assay: method not given.
The target of assay [9] is BG505 SOSIP.664 gp140 trimer (HIV-1 BG505). Nature of the assay: method not given.
For assay [10], the target named is HIV-1 gp41 (strain not stated) (HIV-1). Kind of assay: method not given.

Consider 33 substances from patent US20180028658A1.

Take HIV 1 V3 Monoclonal Antibody (2191): the Percentage of recognition of HIV-1 Env in [1] amounted to 2.9%.
The substance HIV 1 V3 Monoclonal Antibody (2219) yielded a Percentage of recognition of HIV-1 Env in [1] of 3.1%.
HIV 1 V3 Monoclonal Antibody (2442) yielded a Percentage of recognition of HIV-1 Env in [1] of 6.6%.
Same read-out and setting: the same measure for HIV 1 V3 Monoclonal Antibody (3074): 3.4%; for HIV 1 V3 Monoclonal Antibody (3869): 2.6%.
The same measure, in the same setting: the value for “HIV 1 gp41 Monoclonal Antibody (167-7, 67-D IV)” was 11.8%.
Same read-out and setting: the same measure for HIV-1 MAb PG9 (antibody): 6%; for HIV-1 MAb PG16 (antibody): 1.5%; for HIV-1 V2V3 Monoclonal Antibody (2909): 5.6%.
The substance HIV-1 anti-gp41 mAb (7H6) (antibody) displayed a Percentage of recognition of HIV-1 Env in [1] of 19.8%.
HIV-1 anti-gp41 mAb (10E8) (antibody) had a Percentage of recognition of HIV-1 Env in assay [1] of 11.7%. In assay [2], this substance had a Kd of 15500 pM and a dissociation rate constant (koff) of 0.000901 s⁻¹.
In assay [1], HIV-1 gp41 MAb (IgG1 Z13e1) (antibody) displayed a Percentage of recognition of HIV-1 Env of 5.2%.
For the substance HIV-1 gp41 Monoclonal (98-6) (antibody), the Percentage of recognition of HIV-1 Env in assay [1] came out at 3.5%.
In assay [1], “HIV-1 gp41 Monoclonal (126-7) (antibody)” displayed a Percentage of recognition of HIV-1 Env of 3.2%.
With HIV-1 gp41 Monoclonal Antibody (2F5), in [1], the Percentage of recognition of HIV-1 Env worked out at 9.9%. Besides, the half-maximal effective concentration (EC50 (read off the curve)) in assay [3] came to 0.03 µg/mL.
As to HIV-1 gp41 Monoclonal Antibody (4E10), in assay [1], the Percentage of recognition of HIV-1 Env stood at 13.4%. In addition, in [2], the Kd was determined as 10800 pM, the koff was found to be 2.14e-05 s⁻¹ and the association rate constant (kon) is 1980 M⁻¹ s⁻¹. In addition, the EC50 (read off the curve) in [3] stood at 0.03 µg/mL.
HIV-1 gp41 Monoclonal Antibody (5F3): the Percentage of recognition of HIV-1 Env in assay [1] was 6.4%.
For the substance HIV-1 gp41 Monoclonal Antibody (50-69), the Percentage of recognition of HIV-1 Env in assay [1] stood at 4.5%.
Still for that read-out and setting: the value for HIV-1 gp41 Monoclonal Antibody (F240) was 3.5%; that for HIV-1 gp120 MAb (39F) (antibody) was 2.6%.
For the substance HIV-1 gp120 MAb (A32) (antibody), in assay [1], the Percentage of recognition of HIV-1 Env amounted to 79.2%.
In assay [1], HIV-1 gp120 MAb (HJ16) (antibody) had a Percentage of recognition of HIV-1 Env of 17.6%.
Consider HIV-1 gp120 MAb (VRC01) (antibody), for which the values for the EC50 (read off the curve) in assay [4], in assay [5] and in assay [6] were 0.3 µg/mL, 0.05 µg/mL and 0.03 µg/mL, respectively. This substance also returned a Percentage of recognition of HIV-1 Env in assay [1] of 6%.
The substance HIV-1 gp120 MAb (VRC03) (antibody) came in with a Percentage of recognition of HIV-1 Env in assay [1] of 6.4%.
For “HIV-1 gp120 Monoclonal (2G12) (antibody)”, in assay [1], the Percentage of recognition of HIV-1 Env was found to be 22.8%.
HIV-1 gp120 Monoclonal Antibody (17b) registered a Percentage of recognition of HIV-1 Env in assay [1] of 1.5%. In assay [7], this substance yielded an equilibrium dissociation constant (Kd) of 982 pM and a koff of 2.59e-06 s⁻¹.
In [1], HIV-1 gp120 Monoclonal Antibody (48d) yielded a Percentage of recognition of HIV-1 Env of 3.1%.
In turn, HIV-1 gp120 Monoclonal Antibody (F105) registered a Percentage of recognition of HIV-1 Env in assay [1] of 4.5%.
Same read-out and setting: the same measure for “HIV-1 gp120 Monoclonal Antibody (F425 B4a1)”: 2.5%; for “HIV-1 gp120 Monoclonal Antibody (F425 B4e8)”: 6.4%.
Regarding “HIV-1 gp120 Monoclonal Antibody (IgG1 b12)”, in assay [1], the Percentage of recognition of HIV-1 Env turned out to be 9.8%.
Regarding “Monoclonal Antibodies to HIV-1 V3 (268) (antibody)”, in [1], the Percentage of recognition of HIV-1 Env is 2.1%.
NIH45-46 (antibody): the Kd in assay [8] is 100 pM; in assay [9] it was 100 pM; in assay [10], 1000 pM. The 50% effective concentration (EC50 (read off the curve)) in assay [5] came to 0.2 µg/mL; in assay [6], 0.02 µg/mL.

One may read the Kd as the free concentration of one partner at which half of the binding sites on the other are occupied at equilibrium, for simple one-to-one binding. Lower therefore signals tighter binding. Usually koff stands for a measure of how fast the partners let go of each other. As a reminder, the EC50 (read off the curve) is the concentration at which the effect is half-maximal. For orientation: kon means a measure of how fast the partners come together. The low end stands for slow association, the high end for fast association.
